From patent US20210238260A1

Key:
[1] = target: antithrombin III (plasma purified human AT-III, Molecular Innovations) (human) (UniProt P01008); test: AT-III/UFH inhibition of FIXa cleavage of Mesyl-D-CHG-Gly-Arg-AMC; K0.5 = AT-III conc. for 50% inhibition (AT-III varied)
FIXa R318N/A320S (human) = FIXa R318N/A320S (human) (UniProt P00740); test: cell-based or functional assay
FIXa N260S (human) = FIXa N260S (human) (UniProt P00740); test: cell-based or functional assay
[2] = target: FIXa Y155F/K247N/N249S (human) (UniProt P00740); test: cell-based or functional assay
FIXa D203M (human) = FIXa D203M (human) (UniProt P00740); test: cell-based or functional assay
[3] = target: FIXa D104N/K106S/Y155F/K247N/N249S (human) (UniProt P00740); test: cell-based or functional assay
FIXa D203Y (human) = FIXa D203Y (human) (UniProt P00740); test: cell-based or functional assay
FIXa T241N/H243S (human) = FIXa T241N/H243S (human) (UniProt P00740); test: cell-based or functional assay
FIXa K413N (human) = FIXa K413N (human) (UniProt P00740); test: cell-based or functional assay
FIXa R403A (human) = FIXa R403A (human) (UniProt P00740); test: cell-based or functional assay
FIXa K400E/R403E (human) = FIXa K400E/R403E (human) (UniProt P00740); test: cell-based or functional assay
FIXa Y155F/N260S (human) = FIXa Y155F/N260S (human) (UniProt P00740); test: cell-based or functional assay
FIXa V202M (human) = FIXa V202M (human) (UniProt P00740); test: cell-based or functional assay
FIXa F314N/H315S (human) = FIXa F314N/H315S (human) (UniProt P00740); test: cell-based or functional assay
[4] = target: FIXa D85N/D104N/K106S/I251S (human) (UniProt P00740); test: cell-based or functional assay
FIXa E239N (human) = FIXa E239N (human) (UniProt P00740); test: cell-based or functional assay
[5] = target: FIXa A103N/N105S/I251S (human) (UniProt P00740); test: cell-based or functional assay
FIXa R318E (human) = FIXa R318E (human) (UniProt P00740); test: cell-based or functional assay
FIXa A204M (human) = FIXa A204M (human) (UniProt P00740); test: cell-based or functional assay
[6] = target: FIXa D104N/K106S/Y155F/N260S (human) (UniProt P00740); test: cell-based or functional assay
FIXa E410N (human) = FIXa E410N (human) (UniProt P00740); test: cell-based or functional assay
[7] = target: FIXa A103N/N105S/K247N/N249S (human) (UniProt P00740); test: cell-based or functional assay
FIXa K400A/R403A (human) = FIXa K400A/R403A (human) (UniProt P00740); test: cell-based or functional assay
FIXa R318A (human) = FIXa R318A (human) (UniProt P00740); test: cell-based or functional assay
FIXa R312Y (human) = FIXa R312Y (human) (UniProt P00740); test: cell-based or functional assay
FIXa R318Y (human) = FIXa R318Y (human) (UniProt P00740); test: cell-based or functional assay
[8] = target: FIXa D104N/K106S/N260S (human) (UniProt P00740); test: cell-based or functional assay
FIXa Y284N (human) = FIXa Y284N (human) (UniProt P00740); test: cell-based or functional assay
[9] = target: plasma purified human antithrombin III (AT-III), in complex with unfractionated heparin (UFH) (human) (UniProt P01008); test: K0.5: AT-III conc. (with UFH) for 50% inhibition of FIXa cleavage of Mesyl-D-CHG-Gly-Arg-AMC
[10] = target: Factor VIIIa (recombinant FVIII, Kogenate FS, activated with alpha-thrombin) (UniProt P00451); test: apparent functional KD (KD-app): FXa generation by FIXa with FVIIIa titrated, PC/PS vesicles, saturating FX, fluorogenic Spectrafluor FXa
Factor VIIIa (recombinant FVIII, Kogenate FS, activated with alpha-thrombin), sequence (P00451 other isoform, or with tags, fused parts or gaps limits assumed): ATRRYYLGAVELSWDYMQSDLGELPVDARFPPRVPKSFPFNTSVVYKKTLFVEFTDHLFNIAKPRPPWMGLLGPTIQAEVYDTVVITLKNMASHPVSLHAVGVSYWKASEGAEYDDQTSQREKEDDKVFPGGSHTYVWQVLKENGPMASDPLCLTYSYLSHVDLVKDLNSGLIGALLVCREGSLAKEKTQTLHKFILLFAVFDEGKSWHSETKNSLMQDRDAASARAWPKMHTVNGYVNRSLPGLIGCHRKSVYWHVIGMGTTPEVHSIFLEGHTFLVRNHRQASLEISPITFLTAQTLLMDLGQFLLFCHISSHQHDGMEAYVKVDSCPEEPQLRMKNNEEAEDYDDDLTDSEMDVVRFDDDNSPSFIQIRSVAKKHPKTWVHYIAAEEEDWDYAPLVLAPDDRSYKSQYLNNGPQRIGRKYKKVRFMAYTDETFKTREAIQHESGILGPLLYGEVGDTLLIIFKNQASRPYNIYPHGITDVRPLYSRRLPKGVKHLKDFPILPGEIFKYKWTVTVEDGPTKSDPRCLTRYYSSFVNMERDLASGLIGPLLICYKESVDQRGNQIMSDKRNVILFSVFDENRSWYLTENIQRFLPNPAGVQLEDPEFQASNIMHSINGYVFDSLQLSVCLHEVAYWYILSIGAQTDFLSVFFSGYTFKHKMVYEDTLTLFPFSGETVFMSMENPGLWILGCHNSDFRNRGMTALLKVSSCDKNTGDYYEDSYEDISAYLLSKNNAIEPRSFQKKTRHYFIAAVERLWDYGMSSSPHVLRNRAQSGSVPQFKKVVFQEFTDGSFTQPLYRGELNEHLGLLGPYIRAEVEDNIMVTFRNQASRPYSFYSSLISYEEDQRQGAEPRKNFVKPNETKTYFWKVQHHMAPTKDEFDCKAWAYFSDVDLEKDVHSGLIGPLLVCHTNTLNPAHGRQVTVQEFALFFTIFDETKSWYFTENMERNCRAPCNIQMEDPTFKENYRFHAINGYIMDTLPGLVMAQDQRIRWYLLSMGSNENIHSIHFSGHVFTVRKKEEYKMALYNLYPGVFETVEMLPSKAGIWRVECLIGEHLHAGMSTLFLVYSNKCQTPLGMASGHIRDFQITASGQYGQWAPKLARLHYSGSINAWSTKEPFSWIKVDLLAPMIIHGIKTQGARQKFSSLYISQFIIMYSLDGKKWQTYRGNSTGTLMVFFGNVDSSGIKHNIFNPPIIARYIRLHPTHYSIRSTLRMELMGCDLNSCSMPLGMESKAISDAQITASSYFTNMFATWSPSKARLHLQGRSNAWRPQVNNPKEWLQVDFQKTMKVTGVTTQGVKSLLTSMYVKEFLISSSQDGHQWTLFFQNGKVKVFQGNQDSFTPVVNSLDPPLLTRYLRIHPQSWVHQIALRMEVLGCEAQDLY

Plasma Purified FIXa (Haematologic Technologies, Inc.) (from UniProt P00740 47-191; P00740 227-461) (enzyme)
IC50 [1]: 30 nM

plasma purified human AT-III (antithrombin III), in complex with full-length unfractionated heparin (from UniProt P01008 33-464)
K0.5 (nM), inhibition of FIXa by AT-III/UFH (FIXa R318N/A320S (human)): > 999 nM
K0.5 (nM), inhibition of FIXa by AT-III/UFH (FIXa N260S (human)): 312 nM
K0.5 (nM), inhibition of FIXa by AT-III/UFH [2]: 13 nM
K0.5 (nM), inhibition of FIXa by AT-III/UFH (FIXa D203M (human)): 11 nM
K0.5 (nM), inhibition of FIXa by AT-III/UFH [3]: 27 nM
K0.5 (nM), inhibition of FIXa by AT-III/UFH (FIXa D203Y (human)): 16 nM
K0.5 (nM), inhibition of FIXa by AT-III/UFH (FIXa T241N/H243S (human)): 21 nM
K0.5 (nM), inhibition of FIXa by AT-III/UFH (FIXa K413N (human)): 27 nM
K0.5 (nM), inhibition of FIXa by AT-III/UFH (FIXa R403A (human)): 190 nM
K0.5 (nM), inhibition of FIXa by AT-III/UFH (FIXa K400E/R403E (human)): > 999 nM
K0.5 (nM), inhibition of FIXa by AT-III/UFH (FIXa Y155F/N260S (human)): 77 nM
K0.5 (nM), inhibition of FIXa by AT-III/UFH (FIXa V202M (human)): 14 nM
K0.5 (nM), inhibition of FIXa by AT-III/UFH (FIXa F314N/H315S (human)): 104 nM
K0.5 (nM), inhibition of FIXa by AT-III/UFH [4]: 28 nM
K0.5 (nM), inhibition of FIXa by AT-III/UFH (FIXa E239N (human)): 132 nM
K0.5 (nM), inhibition of FIXa by AT-III/UFH [5]: 42 nM
K0.5 (nM), inhibition of FIXa by AT-III/UFH (FIXa R318E (human)): > 10000 nM
K0.5 (nM), inhibition of FIXa by AT-III/UFH (FIXa A204M (human)): 29 nM
K0.5 (nM), inhibition of FIXa by AT-III/UFH [6]: 292 nM
K0.5 (nM), inhibition of FIXa by AT-III/UFH (FIXa E410N (human)): 9 nM
K0.5 (nM), inhibition of FIXa by AT-III/UFH [7]: 53 nM
K0.5 (nM), inhibition of FIXa by AT-III/UFH (FIXa K400A/R403A (human)): > 999 nM
K0.5 (nM), inhibition of FIXa by AT-III/UFH (FIXa R318A (human)): 4140 nM
K0.5 (nM), inhibition of FIXa by AT-III/UFH (FIXa R312Y (human)): 2500 nM
K0.5 (nM), inhibition of FIXa by AT-III/UFH (FIXa R318Y (human)): 1980 nM
K0.5 (nM), inhibition of FIXa by AT-III/UFH [8]: 228 nM
K0.5 (nM), inhibition of FIXa by AT-III/UFH (FIXa Y284N (human)): 41 nM

Plasma Purified FIXa (from UniProt P00740 47-191; P00740 227-461) (enzyme)
IC50 [9]: 30 nM
Kd [10]: 102 nM
